Results reported in publication PMC4689385.

Molecular target: KillerOrange
Experiment: crystal structure; KillerOrange; hanging drop vapor diffusion at 20°C; ~22 mg/ml protein in 20 mM Tris pH 8.0, 200 mM NaCl; reservoir 0.02M Na acetate pH 5.0, 1% gamma-PGA, 3% PEG 4K; data at 100 K

KillerOrange was tested. Which stoichiometry N did it give?
Its stoichiometry N is 2.
